In patent US20070298997A1, “Compounds useful in treating diabetic microvascular complications and age-related macular degeneration” (priority 2003, published 2007):
Entries after “also recorded” stand apart in the source; their conditions may differ.

Columns and labels:
retina = test: Retinal toxicity after intravitreal injection (histology of retinal sections); assay type: in vivo, Brown Norway rats
Experimental: Induction of retinal neovascularization and intravitreal injection of kallistatin: Retinal neovascularization was induced as described by Smith et al. (Smith et al., 1994) with some modifications. Briefly, newborn pigmented Brown Norway rats at postnatal day 7 (P7) were exposed to hyperoxia (75% O2) for 5 days and then normoxia. Animals were anesthetized, and kallistatin was injected into the vitreous of the right eye through the pars plana using a glass capillary. The left eye received the same volume of PBS as the control. After injection, the animals were kept in normoxia for another 5 days for further analyses.

VEGF = VEGF in the conditioned medium of RCEC by ELISA; assay type: cell-based, bovine; details: RCEC under hypoxia, 24 h, 5-80 nM
Experimental: FIG. 9 illustrates down-regulation of VEGF expression by kallistatin. As increased VEGF levels in the retina and vitreous play a key role in the development of retinal neovascularization, the effect of kallistatin on the expression of VEGF in cultured RCEC was determined. VEGF secreted into the conditioned medium was measured by VEGF ELISA and normalized by total protein concentration in the medium.
Measurement of VEGF in the conditioned medium of RCEC by ELISA: RCEC were seeded in T75 flasks in endothelial cell growth medium and cultured in a CO2 incubator to reach 60-70% confluency. The cells were washed 3 times with PBS and the growth medium replaced by a serum-free medium containing bFGF (GIBCO-BRL, Gaithersburg, Md.). Kallistatin was added to the medium to various concentrations and incubated with the cells for 24 h under normoxia or hypoxia (in a chamber that was perfused with a mixture of 95% N2+5% CO2). The conditioned medium was harvested for VEGF ELISA and the cells were used for Western blot analysis. The conditioned medium was centrifuged and the protein concentration in the supernatant was measured with BioRad protein assay. VEGF concentration was measured using a VEGF ELISA kit (R& D systems, Minneapolis, Minn.) and normalized by total protein concentration in the medium.

RCEC = test: [3H] thymidine incorporation assay; assay type: cell-based, bovine; details: 5 to 160 nM
Experimental: [^3H] thymidine incorporation assay: RCEC were seeded in 24-well plates in 1:1 DMEM +F-12 nutrient mixture plus 10% FBS and cultured in a CO2 incubator to reach 60-70% confluency. The cells were washed 3 times with PBS and the growth medium replaced by a medium containing 1% FBS and different concentrations of kallistatin. After 24 h culture, [^3H] thymidine was added to the medium (2 μCi/well) and incubated with the cells at 37° C. for 12 h. Free [^3H] thymidine was removed by 3 washes with PBS, and a solution of 6% TCA was added to the wells. The TCA solution was removed, and the wells were washed once with PBS. The remaining material was solubilized with 200 μl of 1 M NaOH (Smith et al., 1999). Incorporated [^3H] thymidine was measured with a microplate scintillation counter (Packard Instrument Company, Meriden, Conn.).

pericytes = test: Quantification of viable cells by MTT assay, pericytes; assay type: cell-based, bovine; details: 5-160 nM, 72 h, P>0.05
Experimental: FIG. 2 illustrates the specific inhibition of endothelial cell proliferation by recombinant kallistatin. RCEC were treated with recombinant kallistatin at concentrations of 5,10, 20, 40, 80 and 160 nM for 72 h. Viable cells were quantified by MTT assay. […] This effect appeared to be kallistatin concentration-dependent, with an apparent IC50 of 50 nM (FIG. 2) which is similar to that of K5, a known angiogenic inhibitor (Zhang et al., 2001).
Quantification of viable cells: Cells were plated in 12-well plates in triplicate and cultured in the growth medium until they reached 60-70% of confluency. The culture medium was replaced with a medium containing 1% fetal bovine serum (FBS). Recombinant kallistatin was added to the cover medium to various concentrations and incubated with the cells for 72 h. The viable cells were quantified by the MTT (3-[4,5-dimethylthiazol-2-yl]-2,5-dephenyl tetrazolium bromid, Roche, Mannheim, Germany) assay following a protocol recommended by the manufacturer. The effect of kallistatin on viable cell number was analyzed using Student's t test.

[1] = system: primary human mesangial cells (HMC); test: High glucose-induced fibronectin secretion in HMC (ELISA); assay type: cell-based; details: 30 mM glucose, 25 to 1600 nM, 3 days
Experimental: FIG. 11 illustrates blockage of high glucose-induced fibronectin secretion by kallistatin in human mesangial cells (HMC). Primary HMC was treated with high glucose (30 mM) in the presence of different concentrations of kallistatin as indicated for 3 days. Control cells were cultured in 5 mM glucose. To overcome the osmolarity difference, mannitol control cells were treated with 25 mM mannitol+5 mM glucose under the same conditions. Fibronectin secreted into the culture medium was measured by ELISA (mean±SD, n=3).
Cultured primary human mesangial cells (HMC) were treated with 30 mM glucose in the absence or presence of different concentrations of kallistatin (25-1600 nM) for 3 days. Cells cultured in 5 mM glucose were used as a control. To exclude the possible effect of osmolarity from high glucose, an osmolarity control was also included which was treated with 5 mM glucose and 25 mM mannitol. After the treatments for 3 days, secretion of fibronectin into the culture medium was measured.

PEDF = PEDF secretion in HMC under high glucose (ELISA); assay type: cell-based, human; details: 30 mM glucose, 3 days
Experimental: FIG. 13 illustrates prevention of the high glucose-induced decrease of PEDF in HMC by kallistatin. HMC were treated with high glucose (30 mM) in the presence of different concentrations of kallistatin for 3 days. Control cells were treated with 5 mM glucose and 5 mM glucose+25 mM mannitol as an osmolarity control. PEDF secretion into the medium was measured by ELISA (mean±SD, n=3).
Kallistatin up-regulates endogenous anti-inflammatory factors in the kidney. Pigment epithelium-derived factor (PEDF) is an anti-angiogenic factor. Recently, the inventor has shown that PEDF also has anti-inflammatory activities and has a protective effect against DN (see U.S. Ser. No. 10/963,115, filed Oct. 12, 2004, the contents of which are hereby expressly incorporated herein by reference). Decreased PEDF levels in diabetic kidney may contribute to the development of DN. The effect of kallistatin on PEDF expression has been determined in kidney cells. HMC were treated with high glucose (30 mM glucose) with different concentrations of kallistatin for 3 days. The PEDF levels in the cultured medium were measured by ELISA specific for PEDF.

B1: kallistatin: Recombinant His-tagged rat kallistatin (serpin, SEQ ID NO:1) expressed in E. coli and affinity-purified (protein, listed as Homo sapiens)
chain: DGILGRDTLPHEDQGKGRQLHSLTLASINTDFTLSLYKKLALRNPDKNVVFSPLSISAALAILSLGAKDSTMEEILEVLKFNLTEITEEEIHHQGFGHLLQRLSQPEDQAEINTGSALFIDKEQPILSEFQEKTRALYQAEAFVADFKQCNEAKKFINDYVSNQTQGKIAELFSELDERTSMVLVNYLLFKGKWKVPFNPNDTFESEFYLDEKRSVKVPMMKIKDLTTPYIRDEELSCSVLELKYTGNASALFILPDQGKMQQVESSLQPETLKKWKDSLRPRIISELRMPKFSISTDYNLEEVLPELGIRKIFSQQADLSRITGTKNLHVSQVVHKAVLDVDETGTEGAAATAVTAALKSLPQTIPPLNFNRPFMLVITDNNGQSVFFMGKVTNPM
modifications: His tag
inflammatory response or toxicity to retinal tissues and normal vasculature (retina; intravitreal injection): does not cause any detectable inflammatory response or toxicity | histological evidence of retinal toxicity (retina; retinal sections after intravitreal injection): No apparent histological evidence of retinal toxicity | VEGF secreted into the conditioned medium (VEGF): reduced VEGF in the medium | thymidine incorporation (cell proliferation rate) (RCEC): inhibited thymidine incorporation in RCEC in a concentration-dependent manner | inhibition of pericytes (viable cells) (pericytes): did not result in any significant inhibition | fibronectin production (secretion into medium) [1]: concentration-dependent decrease of fibronectin production; also recorded: fibronectin was significantly lower than the high glucose alone | PEDF levels in the cultured medium (PEDF): prevents the decrease of PEDF under the high glucose insult | PEDF levels in the cultured medium (PEDF; listed as Kallistatin): reversed the changes of PEDF under high glucose conditions
